Drawing on US10004800, this text covers Kd for four substances.

One experiment deals with C.CH505 (HIV-1). The experiment is described as follows: SPR.
The next experiment addresses B.63521 (HIV-1). Kind of experiment: SPR.

Usually Kd stands for a measure of binding affinity in units of concentration. A low value points to a tighter complex. CH103: the Kd with C.CH505 (HIV-1) came to 20 nM; with B.63521 (HIV-1), 2.4 nM.

On to CH104, for which the Kd with C.CH505 (HIV-1) amounted to 8.9 nM; with B.63521 (HIV-1), 7.1 nM.

For the substance CH105, the Kd came to 7.4 nM with C.CH505 (HIV-1) and 7 nM with B.63521 (HIV-1).

On to CH106, for which the dissociation constant Kd with C.CH505 (HIV-1) was found to be 5.8 nM; with B.63521 (HIV-1), 5.1 nM.
